Assay results published in patent US20100093086A1 (RESEARCH FOUNDATION OF STATE UNIVERSITY OF NEW YORK, published 2010).
Bridges are numbered along the chain shown (N, C = ends). [ ]: non-standard residue; d: D form. code β = tetrazole-bearing lysine Lys(tetrazole), tetrazole half of pyrazoline cross-linker; L3 = not defined here

B1: sPMI-5 (peptide)
peptide: Ac-TSFXQYW[code β]RLRP-NH2
modifications: bridge 4-8; not fully specified (residue 4, bridges); printed as TSFαQYWβRLRP; also: pyrazoline cross-linker L3 between α and β
notes: Stapled peptide
B2: sPMI-3 (peptide)
peptide: Ac-TSFXQYWNLLXP-NH2
modifications: bridge 4-11 via L3; not fully specified (residues 4, 11); printed as TSFαQYWNLLβP; also: pyrazoline cross-linker L3 between α and β
notes: Stapled peptide
B3: sPMI-4 (peptide)
peptide: Ac-TSFXRYWXRLSP-NH2
modifications: bridge 4-8 via L3; not fully specified (residues 4, 8); printed as TSFαRYWβRLSP; also: pyrazoline cross-linker L3 between α and β
notes: Stapled peptide
B4: sPMI-2 (peptide)
peptide: Ac-TSFAXYWNXLSP-NH2
modifications: bridge 5-9 via L3; not fully specified (residues 5, 9); printed as TSFAαYWNβLSP; also: pyrazoline cross-linker L3 between α and β
notes: Stapled peptide

target: T1, GST-MDM2 containing full-length human MDM2 (human, UniProt Q00987 1-491); experiment: competition ELISA: peptide + GST-MDM2 on plated His6-p53
T1 construct: mature; Expressed in E. coli and purified on glutathione-agarose; also called GST-HDM2; not shown: GST tag
T1 sequence (Q00987 whole entry): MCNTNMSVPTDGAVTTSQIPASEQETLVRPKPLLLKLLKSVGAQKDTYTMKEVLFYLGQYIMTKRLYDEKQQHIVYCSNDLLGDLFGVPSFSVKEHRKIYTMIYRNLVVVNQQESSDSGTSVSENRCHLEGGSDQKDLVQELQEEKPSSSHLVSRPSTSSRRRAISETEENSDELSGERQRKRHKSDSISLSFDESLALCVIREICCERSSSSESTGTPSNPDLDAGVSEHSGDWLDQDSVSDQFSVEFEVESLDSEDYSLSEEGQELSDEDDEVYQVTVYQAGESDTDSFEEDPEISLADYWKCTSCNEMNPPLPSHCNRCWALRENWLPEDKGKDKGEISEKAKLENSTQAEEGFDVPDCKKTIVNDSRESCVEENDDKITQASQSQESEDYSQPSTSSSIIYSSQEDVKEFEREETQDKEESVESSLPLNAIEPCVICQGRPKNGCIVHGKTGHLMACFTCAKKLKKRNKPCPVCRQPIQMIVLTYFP

In order of falling IC50:
1. B3  1230 nM
2. B4  1080 nM
3. B1  597 nM
4. Ac-LTFXHYWXRLRS-NH2 (bridge 4-8 via L3; not fully specified (residues 4, 8); printed as LTFαHYWβRLRS, Stapled peptide) [sPDI-9]  179 nM
5. Ac-LTFXHYWXQLTS-NH2 (bridge 4-8 via L3; not fully specified (residues 4, 8); printed as LTFαHYWβQLTS, Stapled peptide) [sPDI-4]  87 nM
6. Ac-LTFXHYWXRLTS-NH2 (bridge 4-8 via L3; not fully specified (residues 4, 8); printed as LTFαHYWβRLTS, Stapled peptide) [sPDI-8]  55 nM
7. B2  23 nM

target: T2, GST-MDMX containing full-length human MDMX (human, UniProt O15151 1-490); experiment: competition ELISA: peptide + GST-MDMX on plated His6-p53
T2 construct: mature; Expressed in E. coli and purified on glutathione-agarose; not shown: GST tag
T2 sequence (looked up): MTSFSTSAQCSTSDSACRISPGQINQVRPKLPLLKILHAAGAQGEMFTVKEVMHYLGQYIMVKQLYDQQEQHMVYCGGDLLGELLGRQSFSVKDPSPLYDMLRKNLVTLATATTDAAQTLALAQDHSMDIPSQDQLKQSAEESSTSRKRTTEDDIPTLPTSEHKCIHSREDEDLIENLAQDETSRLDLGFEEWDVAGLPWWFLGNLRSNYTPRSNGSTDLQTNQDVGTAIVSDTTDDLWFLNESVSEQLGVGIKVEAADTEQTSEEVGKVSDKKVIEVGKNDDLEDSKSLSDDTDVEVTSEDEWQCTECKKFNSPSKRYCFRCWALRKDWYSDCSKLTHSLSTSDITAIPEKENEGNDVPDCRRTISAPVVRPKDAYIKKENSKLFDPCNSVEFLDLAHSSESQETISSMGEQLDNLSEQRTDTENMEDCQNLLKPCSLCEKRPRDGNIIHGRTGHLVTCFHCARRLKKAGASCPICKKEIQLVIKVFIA

In order of rising IC50:
1. Ac-LTFXHYWXRLTS-NH2 (bridge 4-8 via L3; not fully specified (residues 4, 8); printed as LTFαHYWβRLTS, Stapled peptide) [sPDI-8]  231 nM
2. B1  298 nM
3. Ac-LTFXHYWXQLTS-NH2 (bridge 4-8 via L3; not fully specified (residues 4, 8); printed as LTFαHYWβQLTS, Stapled peptide) [sPDI-4]  390 nM
4. Ac-LTFXHYWXRLRS-NH2 (bridge 4-8 via L3; not fully specified (residues 4, 8); printed as LTFαHYWβRLRS, Stapled peptide) [sPDI-9]  525 nM
5. B2  1490 nM
6. B3  1840 nM
7. B4  3650 nM
